The results in this text go back to article PMC4547048.

Substrate in the series: CC(C)C[C@H](N)C(=O)Nc1ccc([N+](=O)[O-])cc1
In words: purified protein. The class given is biochemical, Anopheles gambiae. The settings on record: 1 mM MnCl2, pH 7.5, 10 mM Tris-HCl, 150 mM NaCl, 25 °C.

B1: AnAPN1 (near full-length recombinant, rFL-APN1) (Anopheles gambiae) (protein)
chain: PPYKSSGIYEEEPQLPGASDLSGGVASDEIGVAPAQAVDERYRLPTTSIPIHYDLHLRTEIHRNERTFTGTVGIQLQVVQATDKLVMHNRGLVMSSAKVSSLPNGVTGAPTLIGDVQYSTDTTFEHITFTSPTILQPGTYLLEVAFQGRLATNDDGFYVSSYVADNGERRYLATTQFESTSARMAFPCYDEPGLKATFTVSITHSLSYKAISNMPQKTTTDIETDMRTTFFEKTPAMSTYLLAFVVSDFQLRLSGAQRVYVRPNAFNEATFALEAGVKILKVLDDHLGIPYDTYMPKLDQIAIPDFAAGAMENWGLVTYREQALLFNPAVSTYRGKTNVATTIAHEYAHQWFGNLVSPEWWEYIWLNEGFATLYEFYALDMAYPGQEYWELFNQQVIQYAMGQDGQASTRPMNWNAATPGEISALFDRVAYDKSGSVLNMMRHVLGDDNWKAGLKAYLTDRALQGAVDEQLYAGLQSAIEGKGVLPNGVTVAQIMRTWTNEAGYPVLNVRRSYDTGDVIISQERFYNDRKVPNTNIWMIPYNYVHQAKADFNEFDDFQWLATKAARIETTVPANEWIVFNKQQVGYYRVNYDEHNWELITNALHENWASIHRLNRAQLIDDAYWLARSGRLDLRVALRFMTYLRNEREYAPWTAANVALTYFNNRLRGTAEYHNFLIFVDALIEDIYSLLTIDAVSPDDTLLHKYLVQTISTWACSMGYTDCLMKTAALLKAEASGTGPAVHPDIASVTYCYGMRSALESEFQYLYRKMMNSKNLAERTMLIDSLGCSNNKEFLKAFLTTALGSGTGVEINYRADERRRVVQAIYSGGRTGVDALIEFLMDPALVNEFVSTLSTSTLNSALSAIASRTNNVEEMNKLNALITALGSRVNSQTAANLRTTAQANLDWVNGFEGLMLSNFLAE
Consider B1, for which the Km (as a rule, the concentration of substrate that gives half-maximal velocity) came to 1840 µM.
